Measurements published in publication PMC9595563 (2022).

Target: SARS-CoV-2 spike RBD-Fc recombinant protein (ELISA) (SARS-CoV-2, UniProt P0DTC2)
Experiment: ELISA

B1: LRRC15-His (natural protein)
chain: YHGCPSECTCSRASQVECTGARIVAVPTPLPWNAMSLQILNTHITELNESPFLNISALIALRIEKNELSRITPGAFRNLGSLRYLSLANNKLQVLPIGLFQGLDSLESLLLSSNQLLQIQPAHFSQCSNLKELQLHGNHLEYIPDGAFDHLVGLTKLNLGKNSLTHISPRVFQHLGNLQVLRLYENRLTDIPMGTFDGLVNLQELALQQNQIGLLSPGLFHNNHNLQRLYLSNNHISQLPPSVFMQLPQLNRLTLFGNSLKELSPGIFGPMPNLRELWLYDNHISSLPDNVFSNLRQLQVLILSRNQISFISPGAFNGLTELRELSLHTNALQDLDGNVFRMLANLQNISLQNNRLRQLPGNIFANVNGLMAIQLQNNQLENLPLGIFDHLGKLCELRLYDNPWRCDSDILPLRNWLLLNQPRLGTDTVPVCFSPANVRGQSLIIINVNVAVPSVHVPEVPSYPETPWYPDTPSYPDTTSVSSTTELTSPVEDYTDLTTIQVTDDRSVWGMTQAQSG
Work on B1 yielded a Kd of 165 nM.
